# Patent US6518404B1, “Human endothelin-bombesin receptor antibodies” (priority 1994, dated 2003)
# Square brackets hold non-standard residues; d marks the D form. Peptide text beside a SMILES is read from it.
# Assays:
# [1] = target: T1, ETBR (endothelin-bombesin receptor) expressed in Xenopus oocytes (Homo sapiens, UniProt O15354); assay: Xenopus oocyte assay to identify ligand (voltage-clamp, calcium activated chloride channel activity); type: cell-based; details: for mean peak ± S.E. peak current response (chloride current): oocytes injected with pHHPEC49 derived RNA transcripts, n=75; for Cl- current response upon addition of ligand: 10 nM ligand, oocytes injected with RNA from ATCC #75823, clamped at -60 mV
# T1 construct: expressed in transfected cells; host or cells: Xenopus oocytes microinjected with in vitro transcribed RNA
# T1 sequence (O15354 27-613): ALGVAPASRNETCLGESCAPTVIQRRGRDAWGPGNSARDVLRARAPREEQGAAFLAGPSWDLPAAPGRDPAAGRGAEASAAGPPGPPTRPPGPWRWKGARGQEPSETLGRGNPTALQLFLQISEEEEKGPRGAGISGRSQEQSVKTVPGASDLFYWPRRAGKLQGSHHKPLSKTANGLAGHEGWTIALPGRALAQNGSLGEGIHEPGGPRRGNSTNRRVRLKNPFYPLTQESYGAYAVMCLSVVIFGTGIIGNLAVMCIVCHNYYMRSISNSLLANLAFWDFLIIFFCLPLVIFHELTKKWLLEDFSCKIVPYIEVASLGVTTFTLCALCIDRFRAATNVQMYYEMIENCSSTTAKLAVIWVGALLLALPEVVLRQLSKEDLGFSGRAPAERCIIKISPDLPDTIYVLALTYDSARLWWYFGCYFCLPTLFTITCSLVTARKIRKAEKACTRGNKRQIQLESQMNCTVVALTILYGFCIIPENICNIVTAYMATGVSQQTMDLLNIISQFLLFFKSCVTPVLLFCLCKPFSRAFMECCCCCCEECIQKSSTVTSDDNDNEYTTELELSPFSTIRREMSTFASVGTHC
# Description: Arrow indicates ET1 addition. […] The mean peak ± S.E. peak current response to ET1 is 150±50 (n=75), ET2 156±55 (n=75) and Bombesin 148±47 (n=75).
# (§1) RNA was synthesized in vitro from linearized DNA, ATCC #75823, using an RNA transcription kit. This RNA was microinjected into Xenopus oocytes (10 ng of RNA/occytes). The oocytes were manually defolliculated prior to microinjection to remove any endogenous receptors that might be present in the follicular membranes. The injected oocytes were maintained in modified Barth's medium at 18° C. for 48 hours to allow for receptor protein expression. Electrophysiology was performed using the voltage-clamp technique. Oocytes were clamped at −60 mV and the calcium activated chloride channel activity was recorded in Barth's medium at room temperature. Data were analyzed using Axotape software.
# (§2) The ET1 and ET3 mediated response was blocked by the ET receptor peptide antagonist BQ123. […] Since it responds to both ET and Bombesin it represents a novel endothelin-bombesin receptor.
# uninjected oocytes = assay: Uninjected Xenopus oocytes (control for endogenous response); type: cell-based; details: uninjected oocytes (data not shown)
# Description: as §1, §2
Compound,mean peak ± S.E. peak current response (chloride current) [1] [nanoamps],Cl- current response upon addition of ligand [1],change in membrane potential upon addition of ligand (uninjected oocytes),effect on ET1 and ET3 mediated response ([1]; oocytes injected with RNA from ATCC #75823)
"endothelin-2 (CSCSSWLDKECVYFCHLDIIW) [ET2, member of the endothelin peptide family]",156±55,–,–,–
endothelin-3 [ET3],–,fairly strong Cl^− currents,did not elicit any change in membrane potential,–
CC(C)C[C@@H]1NC(=O)[C@@H](C(C)C)NC(=O)[C@@H]2CCCN2C(=O)[C@@H](CC(=O)O)NC(=O)[C@@H](Cc2c[nH]c3ccccc23)NC1=O [BQ123] (cyclo(L[dW][dD]P[dV])),–,–,–,blocked
endothelin-1 [ET1],150±50,fairly strong Cl^− currents,did not elicit any change in membrane potential,–
Neuropeptide Y,–,did not illicit any response,–,–
AII: related peptide ligand (DRVYIHPF),–,did not illicit any response,–,–
